Experimental data: patent US9175090B2, “Methods of using an antibody to inhibit WNT-mediated signaling in cancer” (Vanderbilt University, priority 2011, dated 2015)

What was measured:
[1] = system: Wnt signaling (TOPflash, TCF/Lef1 promoter luciferase); assay: TOPflash reporter assay in HEK 293 STF cells treated with Wnt3a-conditioned media; assay type: cell-based; settings: 24 hours, read-out: IC50, inhibition of TOPflash activation (Wnt signaling)
Text: Graph represents mean±s.e.m of TOPflash signal normalized to cell number (performed in quadruplicate). […] Data shown represent mean of four independent amplification reactions, graphed as relative expression to unstimulated cells. Expression levels were normalized to β-actin mRNA. Error bars, RQ values with 95% confidence.

AXIN2 and c-MYC = assay: Real-time RT-PCR of endogenous Wnt target genes; assay type: cell-based; settings: normalized to β-actin mRNA
[2] = molecular target: β-catenin degradation complex (Homo sapiens, UniProt P48729); assay: In vitro kinase reaction with purified GSK3, CK1α, Axin and β-catenin; assay type: biochemical; settings: pyrvinium 10 nM, proteins 100 nM each
Sequence of β-catenin degradation complex (P48729 whole entry, one chain of several): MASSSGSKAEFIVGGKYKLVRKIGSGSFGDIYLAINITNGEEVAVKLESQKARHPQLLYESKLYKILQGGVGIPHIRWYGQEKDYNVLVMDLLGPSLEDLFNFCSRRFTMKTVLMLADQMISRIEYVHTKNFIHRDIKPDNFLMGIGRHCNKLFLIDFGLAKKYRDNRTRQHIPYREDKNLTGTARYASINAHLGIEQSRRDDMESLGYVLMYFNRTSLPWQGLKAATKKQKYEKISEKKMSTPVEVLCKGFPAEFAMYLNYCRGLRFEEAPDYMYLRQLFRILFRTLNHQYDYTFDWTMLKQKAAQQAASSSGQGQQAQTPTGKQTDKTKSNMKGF
Protocol: (§1) FIGS. 3A-C. […] Phosphorylation of β-catenin on GSK3 sites (p33,37,41) and the priming CK1α site (p45) was detected by immunoblotting. […] Cells were treated with Wnt3a-conditioned media and lysates were assayed for TOPflash to assess Wnt signaling.
(§2) The inventors used a cell line with reduced CK1α levels due to inducible expression of shRNA against CK1α.

CK1α = CK1α (Homo sapiens, UniProt P48729); assay: Binding and activation of purified recombinant kinases; assay type: biochemical
Sequence of CK1α (P48729 whole entry): as the sequence (P48729 whole entry, one chain of several) above

GSK3 = GSK3 (Homo sapiens, UniProt P49841); assay: GSK3 kinase activity; assay type: biochemical; settings: data not shown
Sequence of GSK3 (P49841 whole entry): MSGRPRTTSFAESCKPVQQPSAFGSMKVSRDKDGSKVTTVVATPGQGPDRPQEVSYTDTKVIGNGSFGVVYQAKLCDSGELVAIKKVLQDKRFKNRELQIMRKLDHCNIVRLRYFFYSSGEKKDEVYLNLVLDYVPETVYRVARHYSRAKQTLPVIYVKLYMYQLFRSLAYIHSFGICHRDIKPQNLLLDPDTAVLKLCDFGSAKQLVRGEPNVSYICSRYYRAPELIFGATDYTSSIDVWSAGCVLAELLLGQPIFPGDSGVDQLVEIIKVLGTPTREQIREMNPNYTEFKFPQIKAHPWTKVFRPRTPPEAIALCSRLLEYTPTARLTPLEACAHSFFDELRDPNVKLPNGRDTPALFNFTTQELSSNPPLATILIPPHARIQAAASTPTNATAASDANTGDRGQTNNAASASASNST
Text: as §2

[3] = system: Wnt signaling (TOPflash) in shRNA-CK1α cells; assay: TOPflash in Jurkat cell line with inducible shRNA for CK1α; assay type: cell-based; settings: pyrvinium 30 nM, Wnt3a-conditioned media
Protocol: as §1, §2

[4] = system: male C57Bl/6 mice with myocardial infarct; assay type: in vivo
Text: FIGS. 5A-D. Mouse MI model. Representative mouse EKG tracings pre (FIG. 5A) and post (FIG. 5B) coronary artery ligation. […] Arrows mark lateral and posterior left ventricle (LV). LVIDD, LVIDS=LV internal diameter at systole and […], respectively. RV=right ventricle. […] Cardiac dimensions were obtained from 2-D guided M-mode images (100 frames/sec) and were read blinded using short axis and a parasternal long-axis views with the leading edge method. All echo measurements were averaged over 3 consecutive beats on unsedated mice at 7 and 30 days after infarction. Statistical significance assessed by the Wilcoxon rank sum test.
Myocardial infarcts were induced in male C57Bl/6 mice by coronary ligation (FIG. 5) as previously described (Alfaro et al., 2008).
Ventricular remodeling and cardiac functional parameters will be assessed by echo.
Mammalian cardiomyocytes irreversibly withdraw from the cell cycle soon after birth and undergo terminal differentiation. […] Therefore, cardiac injury causes permanent myocardial loss and cardiac dysfunction. […] Proliferation was assessed by immunostaining for Ki-67. […] Phosphorylation of histone 3 (pH3) on Ser 10 is an established cellular marker for chromosome condensation during mitotic prophase (van Amerongen and Engel, 2008).

[5] = system: Wnt3a-mediated Wnt signaling (LRP5/6); assay: Wnt3a-mediated activation of the Wnt pathway, TOPflash reporter cell line (antibody); assay type: cell-based
Protocol: FIGS. 11A-B. Wnt activated signaling. (FIG. 11A) Wnt3a activated signaling in 293 HEK cells. (FIG. 11B) Wnt signaling in SW480 colorectal cancer cell line with mutant APC.
The inventors examined effects of antibodies on Wnt signaling activated by recombinant Wnt3a, which was added to the media, and effects of antibodies on Wnt signaling in a colorectal cancer line (SW480) that has constitutively active Wnt signaling due to a mutation in the tumor suppressor, APC. […] This was unexpected because the APC mutation is downstream of the LRP6 receptor, to which the antibody is directed.

[6] = system: Wnt3a-mediated luciferase activity; assay: Plasma of IV-treated mice tested on TOPflash reporter HEK cells; assay type: in vivo; settings: for Greater inhibition of Wnt3a-mediated luciferase activity by plasma compared to IgM controls: 9.4 μg, 100 μl plasma
Protocol: (§3) The canonical Wnt signaling pathway was assessed using luciferase activity in HEK cells stably transfected with TOPflash reporter. Cells were treated with recombinant Wnt 3a to activate Wnt signaling. […] Cycle thresholds for 18S mRNA transcripts were used to normalize between samples. n=4 mice analyzed at each time point for each cohort. Ki-67-positive cells in the heart (FIG. 8C) and pH3-positive mononucleated, differentiated cardiomyocytes in mabLRP5/6-treated remote myocardium (FIG. 8D).
(§4) To evaluate whether mabLRP5/6 inhibits Wnt-mediated transcription in vivo, the inventors injected 3 groups of mice IV with increasing amounts of mabLRP5/6 (2.3 μg, 4.7 μg or 9.4 μg, n=3 in each group) or control IgM. Mice were sacrificed after 48 hours and serum and tissue samples were obtained. […] Heart tissues from treated animals were homogenized and total RNA isolated for real time RT-PCR analysis (Young et al., 2005). […] The effect on Axin 2 transcript persisted at 72 hours after a single administration. To obtain evidence that mabLRP5/6 has cellular effects on post-MI myocardium, the inventors analyzed by immuno-histology paraffin-embedded sections from male mice treated with either IgM or mabLRP5/6 12 hours prior to induction of acute MI and then sacrificed 14 days later (n=1 for each condition). They identified >3-fold higher Ki-67^+ and pH3^+ cells in the remote LV from the mabLRP5/6-treated mouse compared to the control IgM-treated mouse (FIGS. 8C-D).

[7] = system: Axin 2 and Cyclin D transcripts; assay: Real time RT-PCR of Wnt target genes in heart homogenates of treated mice; assay type: in vivo
Protocol: as §3, §4

[8] = system: Ki-67+ and pH3+ cells in remote LV; assay: Immunohistology of post-MI myocardium after antibody pretreatment; assay type: in vivo, mice; settings: treated 12 hours prior to MI, 14 days, n=1
Protocol: as §3
as §4, with “They identified >3-fold higher Ki-67^+ and pH3^+ cells in the remote LV from the mabLRP5/6-treated mouse compared to the control IgM-treated mouse (FIGS. 8C-D).” left out

[9] = system: male C57Bl/6 mice with myocardial infarct; assay: Acute myocardial infarct model, IV antibody, echocardiography; assay type: in vivo
Protocol: FIG. 9. Effect of low and high dose of mabLRP5/6 adminstered post infarct as compared to […] control. LVIDD and LVIDS to represent cardiac remodeling, and EF, ejection fraction, as a measurement of cardiac function, were determined by echocardiography and are plotted as percentage difference values (mean±SD) between 7 and 30 days after infarct.
The inventors initiated studies to determine the effectiveness of mMABLRP5/6 on repair and regeneration of injured myocardium using an mouse acute myocardial infarct model. Myocardial infarcts were induced in 8-week old male C57Bl/6 mice ([…]) by coronary ligation (FIG. 9) as previously described (Alfaro et al., 2008). At the time of infarction, the inventors administered 10 μg or 20 μg of mabLRP5/6 in 100 μl PBS or the same amount of IgM as control, intravenously by tail vein injection. The mice received a second dose of mabLRP5/6 or control antibody 72 hours after infarct to maintain at least 50% Wnt inhibition activity in the plasma through 7 days post infarct (data not shown). Ventricular remodeling and cardiac function were analyzed by echocardiography pre-infarct and at 7 and 30 days post MI. Ventricular function was reflected by ejection fraction (EF). LV internal dimension diastolic (LVIDD) and LV internal dimension systolic (LVIDS) reflected remodeling of the infarcted ventricle (FIG. 1). […] Additional numbers of animals as well as histologic myocardial analysis and high-resolution visual sonics studies are pending to determine infarct size and elucidate effects of mabLRP5/6 on endogenous cellular myocardial repair.

mice = assay: In vivo toxicity of mabLRP5/6; settings: mouse
[10] = system: β-catenin nuclear accumulation, RKO cells; assay: Wnt3a-induced nuclear accumulation of β-catenin in RKO cells; settings: 300 pg/ml, 24 hours
Protocol: RKO cells were treated with Wnt3a in the presence or absence of 300 pg/ml mabLRP6 for 24 hours. Cells were fixed and immunostained for β-catenin (green). DAPI (blue) stains DNA.

## Cc1cc(/C=C/c2ccc3cc(N(C)C)ccc3[n+]2C)c(C)n1-c1ccccc1 [pyrvinium]
[1]
  IC50: ~10 nM
AXIN2 and c-MYC
  Levels of endogenous Wnt target genes AXIN2 and c-MYC: decreases
[2]
  β-catenin phosphorylation (GSK3 and CK1α sites): dramatic increase
CK1α; data not shown
  Phosphorylation of Tau by CK1α: enhanced
CK1α; pyrvinium 10 nM
  Binding and activation of representative kinases: binding and activation of CK1α alone
GSK3
  GSK3 activity: no observable effect
[3]
  Inhibition of TOPflash activity in shRNA-CK1α cells: failed to inhibit
[4]; data not shown
  Infarct size, comparison between the two cohorts: did not reflect any statistically significant differences
[4]; mouse, in vivo
  Numbers of Ki-67-positive cells in peri-infarct and remote myocardium, versus Cmpd 211: significantly higher
  Numbers of Ki-67-positive cells in the scar, versus Cmpd 211: similar
[4]; single 200 nM injection, p<0.05
  Average difference in fractional shortening between days 7 and 30: 22.3+5.2
[4]; single intramyocardial injection into LV apex, data not shown
  Myocyte proliferation in sham-operated animals: did not induce myocyte proliferation

B1: mabLRP5/6: stable hybridoma line monoclonal antibody against LRP5/6 raised in BALB/c mice with human LRP6 fragments; inhibits Wnt signaling (antibody, V domains shown)
VH: QVQLKESGPGLVASSQSLSITCTVSGFSLSRYSVHWVRQPPGKGLEWLGMIWGGGSTDYNSALKSRLGISKDNSKSQVFLKMNSLQTDDTAMYYCAGTGSWFAYWGQGTLVTVSA
VL: DIQMTQSPASLSASVGETVTITCRASGNIHNYLAWYQQKQGKSPQLLVYNAKTLADGVPSRFSGSGSGTQYSLKINSLQPEDFGSYYCQHFWSTPWTFGGGTKLEIK
[5]
  IC50, inhibition of Wnt signaling: ~0.2 ng/mL
[6]; 48 hours after administration
  Greater inhibition of Wnt3a-mediated luciferase activity by plasma compared to IgM controls: ~5 fold
[6]; 72 hours after administration
  Greater inhibition of Wnt3a-mediated luciferase activity by plasma compared to IgM controls: ~2 fold
[6]; IV 4.7 and 9.4 μg, 50 μl plasma, 48 and 72 hours
  Wnt signaling in TOPflash reporter cell line treated with plasma: inhibited Wnt signaling
[7]; 48 h
  Reduction in Axin 2 transcripts in heart compared to controls: ~2 fold
  Reduction in Cyclin D transcripts in heart compared to controls: ~2 fold
[7]; 72 hours after a single administration
  Effect on Axin 2 transcript in heart: persisted
[8]
  Ki-67+ cells in remote LV, higher than control IgM: > 3 fold
  pH3+ cells in remote LV, higher than control IgM: > 3 fold
[9]; 20 μg compared with 10 μg dose or control IgM
  Percentage difference in LVIDS between day 7 and day 30: reduced in a dose-dependent manner
[9]; high dose
  Decrease in ejection fraction (EF) between day 7 and day 30: decreased less
[9]; high dose (20 μg IV at infarction and 72 hours)
  Percentage difference in LVIDD between day 7 and day 30: 5.36±0.83 percentage
[9]; low dose
  Decrease in ejection fraction (EF) between day 7 and day 30: ~6%
[9]; low dose (10 μg IV at infarction and 72 hours)
  Percentage difference in LVIDD between day 7 and day 30: 6.23 ± 2.3 percentage
[9]; second dose at 72 hours, through 7 days post infarct, data not shown
  Wnt inhibition activity in the plasma: at least 50%
mice
  In vivo toxicity: minimal toxicity
[10]
  Wnt3a-induced nuclear accumulation of β-catenin: blocked
[10]; listed as mabLRP6
  Wnt3a-induced nuclear accumulation of β-catenin: inhibits
